Entries after “also recorded” stand apart in the source; their conditions may differ. Where two headings read alike, the source gives them in different places.
Tests used:
Format in all cases: biochemical
[1] = target: T1, pea PBGS (Pisum sativum, UniProt P30124, C394A); test: native PAGE gel shift of pea PBGS octamer/hexamer equilibrium; details: pea PBGS C326A hexamer, rosmarinic acid 12.5 μM-12.5 mM preincubated 30 min 37 C, then 1 mM ALA and 1 mM MgCl2
T1 construct: made in house
Procedure: (§1) FIG. 32(a) The inhibitor morphlock-1 is illustrated as posed by Glide. The subunits A, B, and E are illustrated as ribbon diagram. Morphlock-1 is shown with carbon atoms and illustrated as ball and stick. FIG. 32(b) The chemical structure of morphlock-1. […] Pea PBGS was incubated with various concentrations of morphlock-1 (in a DMSO solution). Each concentration of morphlock-1 with a fixed amount of DMSO was incubated with protein for 30 minutes at 37° C. prior to resolution on 12.5% polyacrylamide native PhastGels. […] (d) The protein concentration dependence of pea PBGS specific activity is illustrated. PBGS (at varied concentrations) was incubated in the presence of DMSO (●) or 50 μM morphlock-1 in DMSO (∘) for 30 minutes at 37° C. prior to assay. The final concentration of morphlock-1 in the inhibited assay was 5 μM, and the concentration of PBGS in the inhibited and control assays ranged from 0.05-50 μg/mL (0.014-1.4 μM).
FIG. 34(b) Hexameric pea PBGS (1 mg/mL, prepared by dialysis against low ionic strength) was incubated with DMSO (left) or 500 μM morphlock-1 (right) for 30 minutes at 37° C. ALA was added at the indicated concentrations, and the incubation was continued for 30 minutes prior to resolution on 12.5% polyacrylamide native PhastGels. […] Morphlock-1 concentrations are listed at the top of each lane. Protein samples for left-most gel were at 50 μg/ml (1.4 μM subunit) and 1 mM ALA; protein detection is by silver staining. Samples for the middle gel were also at 50 μg/ml (1.4 μM subunit) and 1 mM ALA; the gel was activity stained. Samples for the right-most gel were at 5 μg/ml (0.14 μM subunit) and 10 mM magnesium; protein detection is by Krypton Infrared staining.
FIG. 41 illustrates native PAGE screening of compounds. Octameric PBGS (1 mg/mL) was incubated with DMSO or 2 mM of each compound for 30 minutes at 37° C. prior to resolution on 12.5% polyacrylamide native PhastGels. […] Each compound is identified by its box address. The compound B6 is morphlock-1.
The interconversion of pea PBGS hexamer and octamer is a dynamic equilibrium that responds to protein concentration, substrate concentration, magnesium concentration, inhibitor concentration, and ionic strength.

[2] = target: T2, pea PBGS (Pisum sativum, UniProt P30124); test: pea PBGS activity assay (inhibition, protein concentration dependent specific activity); parameters: made in house
T2 sequence (P30124 69-398 limits assumed): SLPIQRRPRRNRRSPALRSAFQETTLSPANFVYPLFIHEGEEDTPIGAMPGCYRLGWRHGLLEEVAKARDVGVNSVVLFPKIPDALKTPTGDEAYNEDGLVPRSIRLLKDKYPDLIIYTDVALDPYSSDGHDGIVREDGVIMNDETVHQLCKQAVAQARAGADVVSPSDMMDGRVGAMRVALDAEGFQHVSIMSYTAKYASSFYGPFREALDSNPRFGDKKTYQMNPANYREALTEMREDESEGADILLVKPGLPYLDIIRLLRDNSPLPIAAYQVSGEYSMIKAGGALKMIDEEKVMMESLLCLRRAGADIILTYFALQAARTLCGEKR
Procedure: as §1, with “PBGS (at varied concentrations) was incubated in the presence of DMSO (●) or 50 μM morphlock-1 in DMSO (∘) for 30 minutes at 37° C. prior to assay.” left out
The proteins were incubated in the presence of 10× inhibitor for 30 minutes at 37° C. prior to assay. The concentrations on the X-axis represent the final concentration of morphlock-1 in the assay. FIG. 33(b). […] IC50 values were determined as per part (a) using the noted concentrations of pea PBGS. (c) Native PAGE evaluation of the effect of morphlock-1 on the quaternary structure equilibria of PBGS (˜1 mg/ml) from D. melanogaster, P. aeruginosa, V. cholerae, and H. sapiens. Note that the charge/mass ratio is not the same for PBGS from different species.
The dose response curve for morphlock-1 inhibition of pea PBGS (FIG. 37a) was initially carried out at 0.03 μM pea PBGS, where the hexamer is a significant component of the equilibrium mixture; the morphlock-1 concentration was varied from 0.1 μM to 0.1 mM.
The dose response curve for morphlock-1 inhibition of pea PBGS (FIG. 33(a)) was initially carried out at 0.03 μM pea PBGS, where the hexamer is a significant component of the equilibrium, in order to optimize the observed inhibition; the morphlock-1 concentration was varied from 0.1 μM to 0.1 mM.

[3] = tested on: human PBGS; test: kinetic characterization (Km, Vmax, specific activity) of human PBGS variants with substrate ALA; details: for Km1 / Vmax1: Table 1; for Vmax2 / Km: Table 3; for Km: read-out: Km2 (Km for the hexamer)
Procedure: All kinetic determinations were carried out in 0.1 M bis-tris propane, 10 mM 2-mercaptoethanol, 10 μM Zn. For the pH rate profiles, the reported pH reflects the assay pH after the addition of 10 mM ALA-HCl. For Km and Vmax determinations, concentrations of ALA were 10 μM, 30 μM, 100 μM, 300 μM, 1 mM, 3 mM, and 10 mM and were each done in duplicate. […] All assays were at 37° C. for a fixed time using Ehrlich's reagent to determine porphobilinogen formed.
The kinetic parameters Km and Vmax of the S300 purified pools were determined at pH 7 and at pH 9 (Table 3 contains data for hetero-hexamers (Pool I) initially at 70% Leu and 30% Phe and for hetero-octamers (Pool II) initially at 30% Leu and 70% Phe). […] With the exception of the trace amount of octamer present for Pool I that is detected at pH 9, all the kinetic values are well determined (see Table 3). […] The factors that govern equilibration of human PBGS heteromers under assay conditions remain to be elucidated.
Km1 and Km2 (both mM) are interpreted as the Km for the octamer and hexamer, respectively.
Using freshly prepared hetero-oligomers of WT+F12L, the Pool I and Pool II proteins were separated chromatographically and then dialyzed for 24 hours at pH 7 in the presence of 10 mM ALA. Following dialysis, the re-equilibrated hetero-oligomers were again separated into their hexameric and octameric components by chromatography on a Mono-Q column. The separated proteins were characterized for their specific activity and for their Phe12 and Leu12 content. The specific activity of hexamer and octamer are dramatically different with hexamer showing optimal activity at pH 9 and the activity of octamer is maximal at pH 7 (Table 4). […] Following chromatographic separation, the proteins were called Pool I hexamer, Pool I octamer, Pool II hexamer, and Pool II octamer and are described below. The peak to elute first on the Mono-Q column runs comparably to the F12L mutant, which is the hexamer. The hexameric structure is substantiated by native gel electrophoresis and by specific activity at pH 7 and pH 9 (FIG. 26A and Table 4). The second peak to elute runs comparably to the WT human PBGS, which is the octamer. The octameric structure is substantiated by native gel electrophoresis and specific activity at pH 7 and pH 9 (FIG. 26A and Table 4). Consistent with the documented characteristics of human PBGS hexamers and octamers, Pool I hexamer and Pool II hexamer have very low activity at pH 7 and considerable activity at pH 9. Pool I octamer and Pool II octamer both show substantially higher activity at pH 7 than at pH 9.

[4] = tested on: human PBGS; test: temperature dependence (Arrhenius plots) of hetero-hexamer to hetero-octamer conversion and of substrate turnover; details: pH 7.0, 10 mM ALA-HCl
Source text: To determine the free energy of activation for the conversion of hetero-hexamers to hetero-octamers, we took advantage of the dramatic differences in the activity of octameric (high activity) and hexameric (low activity) human PBGS at pH 7.0 (3, 5). Because of this difference, the transition from purified hetero-hexamers to a mixture of hetero-hexamers and hetero-octamers under turnover conditions is accompanied by a progressive increase in the specific activity; this process was monitored at several temperatures. Starting with purified hetero-hexamers, (FIG. 34a) the specific activity increased, which is fit to a first-order exponential as exemplified in FIG. 35b (5). […] The time-courses for conversion of hetero-hexamer to hetero-octamer were monitored by periodically removing aliquots from the incubations and immediately quantifying porphobilinogen using Ehrlich's reagent and calculating specific activities based on the total incubation time. […] An activation energy for hetero-hexamer to hetero-octamer conversion (Ea=63±5 kJ/mol) was determined from the slope of the plot. […] However, we previously monitored this process at 5 μg/ml and 0.9 mg/ml, two widely different enzyme concentrations, by specific activity increase and dynamic light scattering respectively. […]

T1 sequence (P30124 69-398 C394A): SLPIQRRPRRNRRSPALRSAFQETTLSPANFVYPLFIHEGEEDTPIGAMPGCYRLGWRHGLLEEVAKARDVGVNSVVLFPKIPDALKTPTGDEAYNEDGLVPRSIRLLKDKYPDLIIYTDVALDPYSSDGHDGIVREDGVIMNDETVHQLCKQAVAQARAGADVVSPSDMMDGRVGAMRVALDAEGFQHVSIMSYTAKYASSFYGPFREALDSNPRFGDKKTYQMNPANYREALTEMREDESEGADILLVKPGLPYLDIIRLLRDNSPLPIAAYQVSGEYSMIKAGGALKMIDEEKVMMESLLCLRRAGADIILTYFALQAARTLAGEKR

Which results are given for `O=C(/C=C/c1ccc(O)c(O)c1)O[C@H](Cc1ccc(O)c(O)c1)C(=O)O` [rosmarinic acid, benzenepropanoic acid, α-[[(2E)-3-(3,4-dihydroxyphenyl)-1-oxo-2-propenyl]oxy]-3,4-dihydroxy-, (αR)-(9CI), reference compound]?
native gel: conversion of hexamer to octamer by ALA and magnesium [1]: prevent conversion of the hexamer to the octamer; also recorded: stabilizes the hexameric pea PBGS against conversion to the octamer; IC50 [2]: ~63 µM; mode of inhibition (dependence on preincubation time) [2]: slow-binding inhibitor; PBGS concentration giving half maximal specific activity after rosmarinic acid treatment ([2]; 30 minute treatment with 30 μM rosmarinic acid, untreated 3.5 μg/ml): 13.5 µg/mL

B1: F12L: naturally occurring rare allele variant of human PBGS, hexameric, heterologously expressed in E. coli (protein)
chain: MQPQSVLHSGYLHPLLRAWQTATTTLNASNLIYPIFVTDVPDDIQPITSLPGVARYGVNRLEEMLRPLVEEGLRCVLIFGVPSRVPKDERGSAADSEESPAIEAIHLLRKTFPNLLVACDVCLCPYTSHGHCGLLSENGAFRAEESRQRLAEVALAYAKAGAQVVAPSDMMDGRVEAIKEALMAHGLGNRVSVMSYSAKFASCFYGPFRDAAKSSPAFGDRRCYQLPPGARGLALRAVDRDVREGADMLMVKPGMPYLDIVREVKDKHPDLPLAVYHVSGEFAMLWHGAQAGAFDLKAAVLEAMTAFRRAGADIIITYYTPQLLQWLKEE
Which results are given for B1?
Specific activities before and after substrate induced disproportionation ([3]; pH 7): 0.3 µmol/h/mg; Km1 ([3]; pH 7): 17.7 ± 1.1 mM; Vmax1 ([3]; pH 7): 1.14 ± 0.05; Vmax2 ([3]; pH 7): 1.14 ± 0.05 µmol/h/mg; Km ([3]; pH 7): 17.7 ± 1.1 mM; Specific activities before and after substrate induced disproportionation ([3]; pH 9): 14.5 µmol/h/mg; Km1 ([3]; pH 9): 4.6 ± 0.1 mM; Vmax1 ([3]; pH 9): 18.2 ± 0.02; Vmax2 ([3]; pH 9): 18.2 ± 0.2 µmol/h/mg; Km ([3]; pH 9): 4.6 ± 0.1 mM; activation energy for substrate turnover [4]: 45 ± 3 kJ/mol

From patent publication US8153410B2, “Alternate morpheein forms of allosteric proteins as a target for the development of bioactive molecules” (Fox Chase Cancer Center, priority 2003, dated 2012)
